Assay results reported in the Immune Epitope Database (IEDB).

Assays:
[1] = biological target: HLA-A*02:01; test: IEDB peptide-MHC binding, purified MHC/direct/fluorescence; filed as Kd, often an IC50 or EC50 that approximates it; ≥ and ≤ were set here for values at or beyond the usual limits of such assays; conditions: source organism: Vibrio cholerae
[2] = biological target: HLA-B*40:01; test: as above; conditions: source organism: Vibrio cholerae
[3] = biological target: HLA-A*11:01; test: as above; conditions: source organism: Vibrio cholerae
[4] = biological target: HLA-B*35:01; test: as above; conditions: source organism: Vibrio cholerae
[5] = biological target: HLA-B*44:02; test: as above; conditions: source organism: Vibrio cholerae
[6] = biological target: HLA-A*26:01; test: as above; conditions: source organism: Vibrio cholerae
[7] = biological target: HLA-A*01:01; test: as above; conditions: source organism: Vibrio cholerae
[8] = biological target: HLA-B*58:01; test: as above; conditions: source organism: Vibrio cholerae
[9] = biological target: HLA-A*03:01; test: as above; conditions: source organism: Vibrio cholerae
[10] = biological target: HLA-B*08:01; test: as above; conditions: source organism: Vibrio cholerae
[11] = biological target: HLA-A*69:01; test: as above; conditions: source organism: Vibrio cholerae
[12] = biological target: HLA-B*27:05; test: as above; conditions: source organism: Vibrio cholerae
[13] = biological target: HLA-B*07:02; test: as above; conditions: source organism: Vibrio cholerae
[14] = biological target: HLA-A*31:01; test: as above; conditions: source organism: Vibrio cholerae
[15] = biological target: HLA-A*68:02; test: IEDB peptide-MHC binding, purified MHC/competitive/radioactivity; filed as Kd, often an IC50 or EC50 that approximates it; ≥ and ≤ were set here for values at or beyond the usual limits of such assays; conditions: source organism: Dengue virus 3 Martinique/1243/1999
[16] = biological target: HLA-B*58:01; test: as above
[17] = biological target: HLA-B*57:01; test: as above
[18] = biological target: HLA-A*32:01; test: as above; conditions: source organism: Dengue virus 4 Philippines/H241/1956
[19] = source organism: Dengue virus 3 Martinique/1243/1999
[20] = source organism: Dengue virus 4 Philippines/H241/1956

KEDPGDHIF
Kd [1]: ≥ 20 µM | Kd [2]: 0.0249 µM | Kd [3]: ≥ 20 µM | Kd [4]: 0.224 µM | Kd [5]: ≥ 20 µM | Kd [6]: ≥ 20 µM | Kd [7]: ≥ 20 µM | Kd [8]: ≥ 20 µM | Kd [9]: ≥ 20 µM | Kd [10]: ≥ 20 µM | Kd [11]: ≥ 20 µM | Kd [12]: ≥ 20 µM | Kd [13]: ≥ 20 µM | Kd [14]: ≥ 20 µM

LASNAICSAV
Kd [15]: 0.0288 µM | Kd [16, 19]: 0.587 µM | Kd [17, 19]: 8.07 µM

TTMFGGVSW
Kd [16, 20]: 0.00102 µM | Kd [17, 20]: 0.0017 µM | Kd [18]: 0.0217 µM
